Measured values as given in patent publication US20250084158A1 (ABL BIO, published 2025).
One block for each binder: values may come before it.

Assays:
human CLL-1 on cells [1] = molecular target: T1, human CLL-1 on cells (human, UniProt Q5QGZ9 1-265); test: hybridoma screening, ELISA and FACS
T1 construct: whole, on cells; Overexpressed in HEK293E cells or carried by CLL1-expressing leukemic cell lines; the cell line is named under assay or readout; also called CLEC12A; huCLL1_293E
T1 sequence (looked up): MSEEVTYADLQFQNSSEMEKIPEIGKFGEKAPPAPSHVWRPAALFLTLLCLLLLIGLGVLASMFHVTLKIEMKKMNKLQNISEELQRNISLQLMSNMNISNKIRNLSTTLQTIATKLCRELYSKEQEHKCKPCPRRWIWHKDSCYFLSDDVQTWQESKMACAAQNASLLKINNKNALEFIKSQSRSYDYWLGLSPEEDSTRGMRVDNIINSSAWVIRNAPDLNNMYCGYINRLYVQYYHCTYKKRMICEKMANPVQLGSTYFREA

human CLL-1 on cells [2] = molecular target: T1, human CLL-1 on cells; test: cell-based or functional assay
human CLL-1 on cells [3] = molecular target: T1, human CLL-1 on cells; test: FACS, OCI-AML2 cells (2nd Ab only 3.28)
Procedure: (§1) To evaluate cell binding property, the chimeric antibody candidates of Example 1.2. were analyzed in CLL1 negative cells (HEK293E and Jurkat) and various CLL1 expressing cancer cells by using FACS.
(§2) Briefly, cells were incubated with antibodies at 4° C. for 1 hr. Firstly, the cells were washed with an assay buffer (1% BSA in PBS). Then, an anti-human IgG Fc conjugated with FITC (Fluorescein isothiocyanate) (Sigma, F9512) was added to each well and incubated at 4° C. for 1 hr. After wash, the MFI (Median Fluorescence Intensity) of FITC was measured by BD FACS Cal ibur (BD Biosciences).

human CLL-1 on cells [4] = molecular target: T1, human CLL-1 on cells; test: FACS, EOL-1 cells (2nd Ab only 2.53)
Procedure: as §1, §2

human CLL-1 on cells [5] = molecular target: T1, human CLL-1 on cells; test: FACS, HL60 cells (2nd Ab only 5.09)
Procedure: as §1, §2

human CLL-1 on cells [6] = molecular target: T1, human CLL-1 on cells; test: FACS, PL21 cells (2nd Ab only 2.82)
Procedure: as §1, §2

human CLL-1 on cells [7] = molecular target: T1, human CLL-1 on cells; test: FACS, huCLL1_293E cells (2nd Ab only 5.05)
Procedure: as §1, §2

human CLL-1 on cells [8] = molecular target: T1, human CLL-1 on cells; test: FACS, U937 cells (2nd Ab only 4.77)
Procedure: as §1, §2

binding result (human CLL-1 on cells [1]): binds
B1: 33C2 (mouse hybridoma clone) (antibody, V domains shown)
VH: EVQLQQSGPELVKPGASMKISCKASGYSFTGYAMNWVKQSHGKNLEWIGLINPYNGGAMYNQKFKGKATLTVDKSTSTAYMELLSLTSEDSAVYYCARDYRYDGHLDYWGQGTTLTVSS
VL: QIVLTQSPVIMSASPGEKVTMTCSATSSVSYMHWYQQKSGTSPKRWIYDTSKLASGVPVRFSGSGSGTSYSLTISRMEAEDAATYYCQQWSSDSPTFGVGTKLELK
notes: Mouse monoclonal antibody from a Balb/c hybridoma; also called murine 33C2

binding result (human CLL-1 on cells [1]): binds
B2: 16C6 (mouse hybridoma clone) (antibody, V domains shown)
VH: EVQLQQSGPELVKPGASVKISCKASGYSFTGYYMHWVKQSHVKSLEWIGHVNPYNGATSFNRNFKDKASLTVDKSSSTAYMELHSLTSEDSAVYYCGRSADGYYERHFDYWGQGTTLTVSS
VL: DIVLTQSPASLAVSLGQRATISCKASQSVDYDGDSYMNWYQQKPGQPPKLLIYAASNLQSGIPARFSGSGSGTDFTLNIHPVEEEDAATYYCQQSDKDPLTFGAGTKLELK
notes: Mouse monoclonal antibody from a Balb/c hybridoma; also called murine 16C6

ADCC reporter bioassay (luminescence), EC50 (human CLL-1 on cells [2]): 140 pM
B3: hu33C2 (VH3/VL6 (M12)) (antibody, V domains shown)
VH: QVQLVQSGAEVKKPGASVKVSCKASGYSFTGYAMNWVRQAPGQRLEWIGLINPYNGGAMYNQKFKGRATLTVDTSASTAYMELSSLRSEDTAVYYCARDYRYEGHLDYWGQGTLVTVSS
VL: EIVLTQSPATLSLSPGERATLSCSATSSVSYMHWYQQKPGQAPRRWIYDTSKLASGIPARFSGSGSGTSYTLTISSLEPEDFAVYYCQQWSSDSPTFGQGTKLEIK

ADCC reporter bioassay (luminescence), EC50 (human CLL-1 on cells [2]): 130 pM
B4: hu16C6 (VH1/VL1(M14)) (antibody, V domains shown)
VH: QVQLVQSGAEVKKPGASVKISCKASGYSFTGYYMHWVKQSHGQGLEWIGHVNPYNGATSFNRNFKDRASLTVDTSTSTVYMELSSLRSEDSAVYYCGRSAYGYYERHFDYWGQGTLVTVSS
VL: DIVMTQSPDSLAVSLGERATINCKASQSVDYDADSYMNWYQQKPGQPPKLLIYAASNLQSGVPDRFSGSGSGTDFTLTISSLQAEDVAVYYCQQSDRDPLTFGGGTKLEIK

ADCC reporter bioassay (luminescence), EC50 (human CLL-1 on cells [2]): 416 pM
B5: ch84A2 (N12S) (antibody, V domains shown)
VH: EVQLQQSGPELVKSGASVKMSCKASGYTFTSYVIHWVKQMPGQGLEWIGLFNPYNDDVNYNEKFKGKATLTSDKYSSTAYLDLSSLTSEDSAVYYCAREGVHYGRPWFGYWGQGTLVTVSA
VL: DIKMTQSPSSMSASLGERVTITCKASQDIKSYLNWFQQKPGKSPKTLIYRASRLVDGVPARFSGSESGQDYSLTISSLEFEDMGIYYCLQYDEFPLTFGAGTKLELK

MFI(FL1-H) (human CLL-1 on cells [3]): 13
MFI(FL1-H) (human CLL-1 on cells [4]): 3.36
MFI(FL1-H) (human CLL-1 on cells [5]): 14.5
MFI(FL1-H) (human CLL-1 on cells [6]): 27.6
MFI(FL1-H) (human CLL-1 on cells [7]): 72.5
MFI(FL1-H) (human CLL-1 on cells [8]): 30.5
B6: ch84A2(NA/N12S) (antibody, human IgG1, kappa, N297A, V domains shown)
VH: EVQLQQSGPELVKSGASVKMSCKASGYTFTSYVIHWVKQMPGQGLEWIGLFNPYNDDVNYNEKFKGKATLTSDKYSSTAYLDLSSLTSEDSAVYYCAREGVHYGRPWFGYWGQGTLVTVSA
VL: DIKMTQSPSSMSASLGERVTITCKASQDIKSYLNWFQQKPGKSPKTLIYRASRLVDGVPARFSGSESGQDYSLTISSLEFEDMGIYYCLQYDEFPLTFGAGTKLELKR
notes: Chimeric, human IgG1 N297A and human kappa; also called ch84C2; chimeric antibody of 84A2
